Test results from patent publication US20250255972A1, “METHOD OF TREATING UVEITIS WITH MULTIVALENT PROTEIN-HYALURONIC ACID POLYMER CONJUGATE” (Valitor, Inc., priority 2022, published 2025).
“Also recorded” adds a separate entry of the source. Values belong to the molecule of their own block, whether it stands above or below them.

Columns and labels:
[1] = tested on: experimental autoimmune uveoretinitis (EAU) in rats; test: Second rat EAU model, clinical score by slit lamp, Example 9; assay type: in vivo, Male Lewis rats; settings: FIG. 7A, ITV, triamcinolone (40 μg) or conjugate #10 (19 μg), one day after ITV treatment, vs vehicle
Experimental: (§1) The efficacy of conjugate #10 was validated to provide a treatment effect that can sufficiently reduce the symptoms of uveitis. Male Lewis rats were divided into 4 groups (n=12 for EAU induced groups and n=8 for uninduced control) and randomized by weight. The groups received either conjugate #10 at 19 μg, triamcinolone (40 μg), or vehicle control. On Day 1, rats in the induced groups were immunized by a subcutaneous injection in each flank with 25 μg of interphotoreceptor retinoid-binding protein (IRBP) peptide R16 in 0.1 mL of complete Freund's adjuvant for 50 μg total. On days 4 and 8, rat eyes were treated bilaterally with a 5 μL intravitreal (ITV) injection of conjugate #10 or vehicle control, or 1 μL ITV injection of triamcinolone based on their assigned treatment. Prior to the start of the study and on days 3, 6, 10, 12 and 14, ocular inflammation was accessed by slit lamp microscopy and assigned a clinical EAU score of 0-4 based on the appearance of inflammation.

[2] = tested on: pro-inflammatory cytokines and inflammatory regulators in rat vitreous; test: Cytokine analysis of rat vitreous 14 days after uveitis induction (Milliplex bead panel); assay type: in vivo, Male Lewis rats; settings: rat eyes 14 days after uveitis induction; ITV triamcinolone 40 μg or conjugate #10 19 μg
Experimental: as §1
On day 14, animals were euthanized and one eye from each animal was dissected into vitreous and aqueous humor to perform for cytokine analysis. After dissection the aqueous humor from each group was pooled and all tissues were flash frozen. A milliplex Rat Cytokine/Chemokine magnetic bead panel (Millipore Cat #RECYMAG65K27PMX) was used to assess the relative cytokine concentrations in the tissues according to the manufacturer's protocol. Briefly, the ocular tissues were thawed on ice and the sample volume was measured. Then, assay buffer was added to the samples to achieve a final volume of 55 μL for duplicate readings and mixed well. Next, 25 μL of samples, standards or controls was added to the assay plate, mixed with 25 μL of beads and incubated at room temperature for 2 hours. The wells were washed on a magnetic plate washer and incubated with 25 μL of detection antibodies for one hour and then 25 μL of Streptavadin-Phycoerythrin for 30 minutes. Wells were washed on a magnetic plate washer and 125 μL of Sheath Fluid Plus was added per well and then read on the Luminex. The amount of cytokine recovered from each sample was normalized to the volume of tissue recovered and plotted.

[3] = biological target: T1, Human TNFα, Avi and His tagged (Acro Biosystems TNA-H82E3) (human, UniProt P01375 77-233); test: BLI (Gator), Avi-tagged TNFα on streptavidin probes, conjugate as analyte, 1:1 global fit
T1 construct: Bought BLI ligand, loaded on streptavidin probes through the Avi tag; also called BLI ligand
T1 sequence (P01375 77-233 limits assumed): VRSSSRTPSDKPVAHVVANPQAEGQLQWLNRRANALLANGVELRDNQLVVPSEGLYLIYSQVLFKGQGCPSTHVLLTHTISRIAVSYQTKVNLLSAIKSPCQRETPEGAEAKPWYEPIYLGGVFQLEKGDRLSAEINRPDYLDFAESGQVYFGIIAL

[4] = biological target: T2, Human TNFα (Homo sapiens, UniProt P01375); test: Biolayer interferometry (BLI) binding kinetics, Human TNFα ligand; settings: purified conjugate
T2 construct: Avi; His; purchased Acro Biosystems TNA-H82E3
T2 sequence (P01375 77-233 limits assumed): as above

[5] = Hydrodynamic radius by dynamic light scattering (DLS); assay type: physicochemical; settings: 25° C.
[6] = Long-term 37° C. stability in vitreous mimetic buffer, radius by DLS; assay type: physicochemical; settings: FIG. 4C; after 35 days at 37° C. in vitreous mimetic buffer
Experimental: (§2) We then used the top performers from the thermal stability experiments in a long-term 37° C. stability studies. The MVPs were synthesized under sterile conditions and diluted to around 0.4 mg/mL in a sterile filtered human vitreous mimetic buffer (see Table 10) or remained in formulation buffer. The samples were either filtered using sterile 0.2 or 5 μm spin filters before use or mixed with 0.010% sodium azide as an anti-microbial agent. Then, several 100-150 μL aliquots of each sample were added to wells of a sterile 96 well plate with one day 0 aliquot reserved at 4° C. The remaining wells were filled with a sterile filtered human vitreous buffer+0.01% sodium azide to minimize evaporation. The plate was incubated in a standard tissue culture incubator at 37° C. with 5% CO2. At discrete timepoints, one aliquot from each sample was removed from the plate under sterile conditions and analyzed. […] Then, the protein concentration was measured to adjust for any differences in volume that may have occurred. […] To monitor changes in radius over time, the samples were spun for 5 minutes at 5000 g to remove any large aggregates or dust particles and the Rh was measured using DLS methods described above except that the instrument is at 37° C. and without any sample dilution.

[7] = tested on: experimental autoimmune uveoretinitis (EAU) in rats; test: Rat experimental autoimmune uveoretinitis (EAU) model, Example 8; assay type: in vivo, Male Lewis rats; settings: vs vehicle
Experimental: The efficacy of mu_anti-TNFα_aH_CYS MVPs were validated to provide a treatment effect that can sufficiently reduce the symptoms of uveitis. A rat model of experimental autoimmune uveoretinitis (EAU) was used as a model of chronic posterior uveitis in humans. This model was induced by systemic immunization with the uveitogenic interphotoreceptor retinoid-binding protein (IRBP), and symptoms of uveitis appeared after 9-11 days. Rats were treated intravitreally with 12.5 μg of mu_anti-TNFα_aH_CYS MVP (Conjugate #7). As a positive control, dexamethasone was used.
Male Lewis rats were divided into 4 groups (n=8) and randomized by weight. […] On Day 1, rats were immunized by a subcutaneous injection at the base of the tail and in each thigh with 30 μg of bovine IRBP peptide R16 in 0.2 mL of Freund's adjuvant. On days 8 and 10, rat eyes were treated bilaterally with a 5 μL ITV injection of either dose of their assigned treatment. Prior to the start of the study and on days 7, 9, 11, 14, we assessed ocular inflammation by slit lamp microscopy and assigned a clinical EAU score of 0-4 based on the appearance of inflammation. On day 14, animals were euthanized, one eye from each animal was processed for histopathology, and assigned a score of 0-4 based on the appearance of inflammation and cell infiltration. EAU and histopathology were scored based on published standardized scoring systems.

[8] = tested on: TNFα; test: Long-term 37° C. stability, change in Kon by BLI; assay type: physicochemical; settings: FIG. 4B
Experimental: as §2

Molecule: C[C@]12C=CC(=O)C=C1CC[C@H]1[C@@H]3C[C@@H](O)[C@](O)(C(=O)CO)[C@@]3(C)C[C@H](O)[C@@]12F [Triamcinolone, triamcinolone, reference compound]
Average inflammation score (clinical EAU score, 0=none to 4=severe) [1]: decreased inflammation compared to the vehicle control | IFNγ concentration in the vitreous ± SD [2]: 2.540 ± 1.804 ng/mL | IL-1α concentration in the vitreous ± SD [2]: 1.321 ± 0.844 ng/mL | IL-1β concentration in the vitreous ± SD [2]: 0.721 ± 0.445 ng/mL | IL-6 concentration in the vitreous ± SD [2]: 19.936 ± 17.156 ng/mL | MCP-1 concentration in the vitreous ± SD [2]: 2.705 ± 2.640 ng/mL | TNFα concentration in the vitreous ± SD [2]: 0.046 ± 0.051 ng/mL

Kd [3]: ≤ 1 pM
B1: (SEQ ID NO:149)+HyA conjugate #12, valency 99 (other)
VHH: QVQLVESGGGLVQPGGSLRLSCAASGGTFSSIIMAWFRQAPGKEREFVGAVSWSGGTTVYADSVKGRFTISRDNSKNTVYLQMNSLRPEDTAVYYCAARPYQKYNWASASYNVWGQGTLVTVSSAEAAAKEAAAKEAAAKAGC
modifications: C-terminal cysteine thiol of the aH peptide linker joined through the MP2H organic linker to hyaluronic acid

Kd [4]: ≤ 0.001 nM
B2: Conjugate #7: (SEQ ID NO:104, anti-TNFα 3MUT VHH (mouse)-aH)+HyA (850 kDa) conjugate, MP2H linker, valency 98 (conjugate)
VHH: QVQLQESGGGLVQAGGSLRLSCAASGGTFSSIIMAWFRQAPGKEREFVGAVSWSGGTTVYADSVKGRFTISRDSARKSVYLQMNSLKPEDTAVYYCAARPYQKYNWASASYNVWGQGTQVTVSSAEAAAKEAAAKEAAAKAGC
modifications: hyaluronic acid 850 kDa conjugate via MP2H linker; anti-TNFalpha 3MUT VHH (mouse)- aH
Rh (nm, DLS) [5]: 76.42 nm | conjugate size (DLS) as share of the original radius [6]: about 75% | Average inflammation score (0=none to 4=severe) ([7]; FIG. 6A, rat EAU, ITV, or Conjugate #7 (12.5 μg), n=8, one day after ITV treatment): decreased inflammation compared to the vehicle control | Average histology inflammation score (0=none to 4=severe) ([7]; FIG. 6B, rats sacrificed 14 days after model induction, p<0.05): less inflamed than vehicle treated eyes

Kd [4]: ≤ 0.001 nM | change in association constant of TNFα binding ([8]; after 35 days at 37° C.): minimal change
B3: Conjugate #6: (SEQ ID NO:104, anti-TNFα 3MUT VHH (mouse)-aH)+HyA (850 kDa) conjugate, MP2H linker, valency 51 (conjugate)
VHH: QVQLQESGGGLVQAGGSLRLSCAASGGTFSSIIMAWFRQAPGKEREFVGAVSWSGGTTVYADSVKGRFTISRDSARKSVYLQMNSLKPEDTAVYYCAARPYQKYNWASASYNVWGQGTQVTVSSAEAAAKEAAAKEAAAKAGC
modifications: hyaluronic acid 850 kDa conjugate via MP2H linker; anti-TNFalpha 3MUT VHH (mouse)- aH
Rh (nm, DLS) [5]: 76.8 nm | conjugate size (DLS) as share of the original radius [6]: about 75%

Kd [4]: ≤ 0.001 nM
B4: Conjugate #10: (SEQ ID NO:104, anti-TNFα 3MUT VHH (mouse)-aH)+HyA (850 kDa) conjugate, MP2H linker, valency 96.5 (conjugate)
VHH: QVQLQESGGGLVQAGGSLRLSCAASGGTFSSIIMAWFRQAPGKEREFVGAVSWSGGTTVYADSVKGRFTISRDSARKSVYLQMNSLKPEDTAVYYCAARPYQKYNWASASYNVWGQGTQVTVSSAEAAAKEAAAKEAAAKAGC
modifications: hyaluronic acid 850 kDa conjugate, MP2H linker; anti-TNFalpha 3MUT VHH (mouse)- aH
Rh (nm, DLS) [5]: 99.14 nm | Average inflammation score (clinical EAU score, 0=none to 4=severe) [1]: comparable to triamcinolone; also recorded: decreased inflammation compared to the vehicle control | IFNγ concentration in the vitreous ± SD [2]: 3.116 ± 1.436 ng/mL | IL-1α concentration in the vitreous ± SD [2]: 1.511 ± 0.709 ng/mL | IL-1β concentration in the vitreous ± SD [2]: 0.667 ± 0.271 ng/mL | IL-6 concentration in the vitreous ± SD [2]: 25.565 ± 15.702 ng/mL | MCP-1 concentration in the vitreous ± SD [2]: 3.843 ± 2.499 ng/mL | TNFα concentration in the vitreous ± SD [2]: 0.058 ± 0.038 ng/mL

B5: Conjugate #13: (SEQ ID NO:150, Hu aTNFα 5MUT aH_CYS)+hyaluronic acid conjugate, MP2H linker, valency 102 (conjugate)
VHH: QVQLVESGGGLVQPGGSLRLSCAASGGTFSSIIMAWFRQAPGKEREFVAAISWSGGTTVYADSVKGRFTISRDNSKNTVYLQMNSLRPEDTAVYYCAARPYQKYNWASASYNVWGQGTLVTVSSAEAAAKEAAAKEAAAKAGC
modifications: hyaluronic acid conjugate, MP2H linker; Hu_aTNFaMu_5MUT aH_CYS
Rh (nm, DLS) [5]: 71.64 nm

B6: Conjugate #12: (SEQ ID NO:149, Hu aTNFα 3MUT aH_CYS)+hyaluronic acid conjugate, MP2H linker, valency 99 (conjugate)
VHH: QVQLVESGGGLVQPGGSLRLSCAASGGTFSSIIMAWFRQAPGKEREFVGAVSWSGGTTVYADSVKGRFTISRDNSKNTVYLQMNSLRPEDTAVYYCAARPYQKYNWASASYNVWGQGTLVTVSSAEAAAKEAAAKEAAAKAGC
modifications: hyaluronic acid conjugate, MP2H linker; Hu_aTNFaMu_3MUT aH_CYS
Rh (nm, DLS) [5]: 70.12 nm

Kd [3]: ≤ 1 pM
B7: (SEQ ID NO:150)+HyA conjugate #13, valency 102 (other)
VHH: QVQLVESGGGLVQPGGSLRLSCAASGGTFSSIIMAWFRQAPGKEREFVAAISWSGGTTVYADSVKGRFTISRDNSKNTVYLQMNSLRPEDTAVYYCAARPYQKYNWASASYNVWGQGTLVTVSSAEAAAKEAAAKEAAAKAGC
modifications: C-terminal cysteine thiol of the aH peptide linker joined through the MP2H organic linker to hyaluronic acid
notes: also called Conjugate ID 13

Kd [4]: ≤ 0.001 nM | change in association constant of TNFα binding ([8]; after 5 days at 37° C.): dramatically decreased
B8: Conjugate #5: (SEQ ID NO:103, anti-TNFα VHH (mouse)-aH)+HyA (850 kDa) conjugate, MP2H linker, valency 121 (conjugate)
VHH: QVQLQDSGGGLVQAGGSLRLSCAASGGTFSSIIMAWFRQAPGKEREFVGAVSWSGGTTVYADSVLGRFEISRDSARKSVYLQMNSLKFPEDTAVYYCAARPYQKYNWASASYNVWGQGTQVTVSSAEAAAKEAAAKEAAAKAGC
modifications: hyaluronic acid 850 kDa conjugate via MP2H linker; anti-TNFalpha VHH (mouse)- aH
